Measured values published in paper PMC3493562.
“And” between values parts separate entries of the source, which are not always exact repeats. Identical values can stand only once. Like-named read-outs stand apart in the source and are kept apart here.

Key:
[1] = target: amyloid β peptide (Aβ) of the TBS-soluble fraction of human Alzheimer's disease brain (human (endogenous in brain)); experiment: SDS-PAGE and immunoblot
[2] = target: amyloid β peptide (Aβ) of the TBS-soluble fraction of human Alzheimer's disease brain (human (endogenous in brain)); experiment: SEC
[3] = target: split-luciferase tagged Aβ; experiment: SEC + split reporter
[4] = target: split-luciferase tagged Aβ; experiment: split reporter
[5] = target: split-luciferase tagged Aβ; experiment: split reporter; remark: listed apart in the source
[6] = target: split-luciferase tagged Aβ; experiment: split reporter; remark: listed apart in the source
split reporter = split reporter (BiFC, NanoBiT)

With “amyloid β peptide (Aβ) of the TBS-soluble fraction of human Alzheimer's disease brain” the stoichiometry N [1] was 2, the “percent of LMW Aβ eluting in the HMW Aβ fraction after incubation without apoE” value (SEC) was 0.5 ± 0.7 without apoE and the stoichiometry N [2] was 2 and 3.
For split-luciferase tagged Aβ (peptide), the stoichiometry N [3] was 2, the luminescence of conditioned medium (% of control) with apoA-II co-expressed [4] was 91.7% and the luminescence of conditioned medium (% of control) with apoE3 NTF co-expressed [4] was 113%. The luminescence of conditioned medium (% of control) with apoE3 co-expressed [4] was 274%, the luminescence of conditioned medium (% of control) with apoE 192-242 co-expressed [4] was 142% and the luminescence of conditioned medium (% of control) with apoE 192-272 co-expressed [4] was 185%. For the same substance, the luminescence of conditioned medium (% of control) with apoE 231-299 co-expressed [4] was 223%, the luminescence of conditioned medium (% of control) with apoE 243-299 co-expressed [4] was 235% and the luminescence of conditioned medium (% of control) with apoE CTF co-expressed [4] was 239%. The luminescence (%) after incubation with fraction 8 of APOEε3/ε3 AD brains [5] was 168%, the luminescence (%) after incubation with fraction 8 of APOEε4/ε4 AD brains [5] was 193% and the luminescence of cell lysate (%) with apoA-II co-expressed [5] was 100%. For the same substance, the luminescence of cell lysate (%) with apoE2 co-expressed [5] was 89.9%, the luminescence of cell lysate (%) with apoE3 co-expressed [5] was 96.4% and the luminescence of cell lysate (%) with apoE4 co-expressed [5] was 92.5%. It also gave a luminescence of conditioned medium (% of control) with apoA-I co-expressed [5] of 132%, a luminescence of conditioned medium (% of control) with apoA-II co-expressed [5] of 89.3% and a luminescence of conditioned medium (% of control) with apoE3 co-expressed [5] of 279%. For the same substance, the luminescence of conditioned medium (%) with apoA-II co-expressed [5] was 101%, the luminescence of conditioned medium (%) with apoE3 co-expressed [5] was 229% and the luminescence of conditioned medium (%) with apoE4 R61T co-expressed [5] was 228%. It also gave a luminescence of conditioned medium (%) with apoE4 co-expressed [5] of 261%, a luminescence of conditioned medium (% of control) with apoE3 NTF co-expressed [6] of 114% and a luminescence of conditioned medium (% of control) with apoE3 co-expressed [6] of 218%. It also gave a luminescence of conditioned medium (% of control) with apoE CTF co-expressed [6] of 206%.
With split-luciferase tagged Aβ the “luminescence (%) after incubation with SEC fraction 6 of AD brain” value (split reporter) was 141.8% in AD fraction 6, the “luminescence (%) after incubation with SEC fraction 6 of control brain” value (split reporter) was 99.8% in control fraction 6 and the “luminescence (%) after incubation with SEC fraction 7 of AD brain” value (split reporter) was 198.4% in AD fraction 7. The “luminescence (%) after incubation with SEC fraction 7 of control brain” value (split reporter) was 163.2% in control fraction 7, the “luminescence (%) after incubation with SEC fraction 8 of AD brain” value (split reporter) was 256.4% in AD fraction 8 and the “luminescence (%) after incubation with SEC fraction 8 of control brain” value (split reporter) was 230.8% in control fraction 8. The “luminescence (%) after incubation with SEC fraction 9 of AD brain” value (split reporter) was 207.6% in AD fraction 9 and the “luminescence (%) after incubation with SEC fraction 9 of control brain” value (split reporter) was 202.6% in control fraction 9.
